# Paper doi:10.1101/2020.05.08.084889 (bioRxiv, 2020)
# B1: Recombinant rat EfnB1-FC (Fc fusion)
# chain: ATPLAKNLEPVSWSSLNPKFLSGKGLVIYPKIGDKLDIICPRAEAGRPYEYYKLYLVRPEQAAACSTVLDPNVLVTCNKPQQEIRFTIKFQEFSPNYMGLEFKKYHDYYITSTSNGSLEGLENREGGVCRTRTMKIVMKVGQDPNAVTPEQLTTSRPSKESDNTVKTATQAPGRGSQGDSDGKHETVNQQEKSGPGAGGSGSGDTDSFFNSK
# How the values were obtained:
# [1] = biological target: the molecule itself; assay: single molecule AFM force measurement
# Recombinant rat EfnB1-FC = biological target: B1; assay: single molecule AFM force measurement
fold of heterophilic binding over EfnB1 homophilic binding (Recombinant rat EfnB1-FC) [fold],Binder,binding result [1]
–,B1,binds
–,"Desmocollin-3 complete extracellular region, biotinylated (Dsc3-ATH) (domain or fragment, biotin on the Avi-tag (BirA enzyme)) RWAPIPCSMQENSLGPFPLFLQQVESDAAQNYTVFYSISGRGVDKEPLNLFYIERDTGNLFCTRPVDREEYDVFDLIAYASTADGYSADLPLPLPIRVEDENDNHPVFTEAIYNFEVLESSRPGTTVGVVCATDRDEPDTMHTRLKYSILQQTPRSPGLFSVHPSTGVITTVSHYLDREVVDKYSLIMKVQDMDGQFFGLIGTSTCIITVTDSNDNAPTFRQNAYEAFVEENAFNVEILRIPIEDKDLINTANWRVNFTILKGNENGHFKISTDKETNEGVLSVVKPLNYEENRQVNLEIGVNNEAPFARDIPRVTALNRALVTVHVRDLDEGPECTPAAQYVRIKENLAVGSKINGYKAYDPENRNGNGLRYKKLHDPKGWITIDEISGSIITSKILDREVETPKNELYNITVLAIDKDDRSCTGTLAVNIEDVNDNPPEILQEYVVICKPKMGYTDILAVDPDEPVHGAPFYFSLPNTSPEISRLWSLTKVNDTAARLSYQKNAGFQEYTIPITVKDRAGQAATKLLRVNLCECTHPTQCRATSRSTGVILGK",binds
~3,"E-cadherin complete extracellular region, biotinylated (Ecad-ATH) (domain or fragment, biotin on the Avi-tag (BirA enzyme)) DWVIPPISCPENEKGPFPKNLVQIKSNRDKEIKVFYSITGQGADAPPVGVFIIERETGWLKVTEPLDREQIAKYILYSHAVSSNGNAVEDPMEIVITVTDQNDNKPEFTQAVFQGSVTEGALPGTSVMQVTATDADDDVNTYNAAIAYSILTQDPLLPSSMMFTINKDTGVISVLTTGLDREGVPMYTLVVQAADLQGEGLTTTATAVITVTDINDNPPIFNPTTYQGRVPENKANVEIAVLKVTDADVPDTPAWRAVYTILNNNNDQFVVTTDPVTNDGILKTTKGLDFEDKQQYVLYVTVVNVTPFEVILSTSTATVTVDVEDVNEAPIFIPCPKVVSIPEDFGVGQEITSYTAEDPDTYMEQRITYRIWRDAAGWLEVNPESGAIFTRAELDREDFEHVKNSTYEALIIAIDNGSPVATGTGTLLLVLSDVNDNGPIPEPRNMDFCQKNPQPHVINIIDPDLPPNTSPFTAELTHGASVNWTIEYNDPARESLILKPKKTLELGDYKINLKLTDNQNKDQVTTLDVFVCDCEGVVNSCKRTAPYAEAGLQVPA",–
